Results on 17 sequences are retold here after the supplement of paper PMC9170038.

The data set relates to K4 kissing-loop RNA reporter. As to the kind of experiment: apparent KD of K4 kissing-loop reporter; higher = weaker reporter binding. Particulars: Eterna round: R107. The protocol:
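RNA-MaP round R107: designed RNA switches with theophylline, tryptophan, arginine or FMN aptamers are transcribed on-chip within common flanks. They are titrated with a labelled K4 kissing-loop RNA reporter in RNA-MaP buffer (100 mM Tris pH 7.5, 80 mM KCl, 4 mM MgCl2), without ligand or with the indicated ligand. Median apparent KD per design.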

The mark [1] stands for this setting: input ligand: theophylline 20 uM.
Setting [2] is: input ligand: tryptophan 2.4 mM.
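Also: bound reporter read as fluorescence of individual clusters on recovered sequencing chips by microscopy, with normalized cluster intensities fitted with a binding model.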

As to “AAUUCUUAUCUUAGUUGAUUUCUAAUUAAACGAGGACCGGUACGGCCGCCACUCGGUUAUGAGUGAUGUUCAUGGAAUUACAUAA [JR_SSTryptoA_Sub019]”, the “apparent KD of K4 kissing-loop reporter” value by setting is: (input ligand: FMN 200 uM) 407 nM; (input ligand: arginine 13.2 mM) 601 nM; (input ligand: none) 515 nM; under setting [1], 791 nM; under setting [2], 169 nM.
For “AAUUUAGUGACGGCCGCCACUAGGGUGAUUUAUUUGUUUGAGUGAUGUUUUGAUGUUUGAUUUUGUAGGACCGGGUUAGGUGAUG [dddcmullin]”, the “apparent KD of K4 kissing-loop reporter” value amounted to 354 nM (input ligand: FMN 200 uM); 304 nM (input ligand: arginine 13.2 mM); 363 nM (input ligand: none); 326 nM under setting [1]; 271 nM under setting [2].
For the sequence “AAUUUAUUAUCUGAUACCAGACUUUAUCUUGUUUAUAAGUCAAGUGAUGUUUGACUAUUAGUCCCUUGGCAGCAGUAUUUUUUAA [JR_Nu_SSTheophyB_Sub025]”, the “apparent KD of K4 kissing-loop reporter” value worked out at 251 nM (input ligand: FMN 200 uM); 260 nM (input ligand: arginine 13.2 mM); 269 nM (input ligand: none); 187 nM under setting [1]; 230 nM under setting [2].
Consider “AAUUUAUUAUCUGAUACCAGACUUUUUCUUGUAUAUAAGUCAAGUGAUGUUUGACUUUUAGUCCCUUGGCAGCAGUAUUUUUUAA [JR_Nu_SSTheophyB_Sub027]”, for which the “apparent KD of K4 kissing-loop reporter” value (input ligand: FMN 200 uM) is 165 nM; the “apparent KD of K4 kissing-loop reporter” value (input ligand: arginine 13.2 mM) was 149 nM; the “apparent KD of K4 kissing-loop reporter” value (input ligand: none) worked out at 168 nM; the “apparent KD of K4 kissing-loop reporter” value under setting [1] amounted to 123 nM; the “apparent KD of K4 kissing-loop reporter” value under setting [2] turned out to be 155 nM.
As for “ACACUAUCGUCAUAGACGGUAGUGAAAUCACAGGAUAUAAGUGAUGUUAGAAGGGUGAAAGACUGUAUCGAAUAGAUACAGUCAA [FmnA 3 #K4BetweenAptamer #OpenEnded]”, the “apparent KD of K4 kissing-loop reporter” value (input ligand: FMN 200 uM) worked out at 1140 nM; the “apparent KD of K4 kissing-loop reporter” value (input ligand: arginine 13.2 mM) was found to be 605 nM; the “apparent KD of K4 kissing-loop reporter” value (input ligand: none) was determined as 913 nM; the “apparent KD of K4 kissing-loop reporter” value under setting [1] came to 861 nM; the “apparent KD of K4 kissing-loop reporter” value under setting [2] amounted to 878 nM.
In the case of “ACAGGAUCGAAGAUCCUGAGCAGUCAAAACCGAGGACCGGUACGGCCGCCACUCGGAGUGAUGUUCCGAAGACUGCAAAAUAAAA [#SwitchBubble 3]”, the “apparent KD of K4 kissing-loop reporter” value is, setting by setting: (input ligand: FMN 200 uM) 1090 nM; (input ligand: arginine 13.2 mM) 760 nM; (input ligand: none) 1010 nM; under setting [1], 1010 nM; under setting [2], 692 nM.
Turning to “ACAGUUGCUAGUGAUACCAGACUAGCACUACGUAGUAUGUCAAGUGAUGUUUGACAACUAGUCCCUUGGCAGCGCGAUACGACUG [#12 K4 Theophylline B Same State]”, the “apparent KD of K4 kissing-loop reporter” value reads like this: (input ligand: FMN 200 uM) 181 nM; (input ligand: arginine 13.2 mM) 152 nM; (input ligand: none) 170 nM; under setting [1], 136 nM; under setting [2], 169 nM.
With “ACAUAGGAUGGAAGGAGCGCUCGUCAGUCCUGCGAGUGAUGUUCGUGGGUAAAUAUUCGCGAGCAGGUAGGUCGCCAUCUUGAAA [Vedi]”, the “apparent KD of K4 kissing-loop reporter” value is 109 nM (input ligand: FMN 200 uM); 115 nM (input ligand: arginine 13.2 mM); 158 nM (input ligand: none); 177 nM under setting [1]; 164 nM under setting [2].
As for “ACCAAUUUACCGGCAGUAGUGAUGUUACUCCGAGGACCGGUACGGCCGCCACUCGCGAACGUAGGGUUUCUGACUCGAAGAGUCU”, the “apparent KD of K4 kissing-loop reporter” value is, setting by setting: (input ligand: FMN 200 uM) 191 nM; (input ligand: arginine 13.2 mM) 127 nM; (input ligand: none) 171 nM; under setting [1], 149 nM; under setting [2], 171 nM.
On to “ACCACCUGUCUGGAUACCAGUCUUCGAGUGAUGUUGGAAGUUAGCCGGUUCUAUUACCUAGACCCUUGGCAGCCAGGAAUUAUAG [theeternabot_exclusion_KL_Theo_B_17]”, for which the “apparent KD of K4 kissing-loop reporter” value runs as follows: (input ligand: FMN 200 uM) 1140 nM; (input ligand: arginine 13.2 mM) 861 nM; (input ligand: none) 1500 nM; under setting [1], 1130 nM; under setting [2], 872 nM.
For the sequence “ACCGCAUUGGGCUGAUCCCAAUGCGCUGGUCGAGGACCGGUACGGCCGCCACUCGUCCAGUGAUGUUGGACUAGGGCAACUGAAG [Veraceer]”, the “apparent KD of K4 kissing-loop reporter” value came to 390 nM (input ligand: FMN 200 uM); 244 nM (input ligand: arginine 13.2 mM); 249 nM (input ligand: none); 449 nM under setting [1]; 83.3 nM under setting [2].
On to “ACCUACCAUUAGUGAUGUUAAUGGACGGAAGGAGCGCAGAUAUCUGCAGGUAGGUCGCCGAAGGCUAGACAUUGUCUAGCCAUUA [AK1.1 SS Arginine A]”, for which the “apparent KD of K4 kissing-loop reporter” value reads like this: (input ligand: FMN 200 uM) 227 nM; (input ligand: arginine 13.2 mM) 178 nM; (input ligand: none) 197 nM; under setting [1], 163 nM; under setting [2], 183 nM.
The corresponding values for “ACCUACGAUCACAAAAGUGAUUGUAGGAUCUAGGAUAUGCUGAAAAGCAGAAGGAGAGUGAUGUUCUCAACUCACGAAAGUGAGA [FmnAX 1 #OpenEnded #K4Late]” are 354 nM, 184 nM, 183 nM, 182 nM and 173 nM.
Take “ACGAUUUACAGAAGGAGCGUGUAUUUAACUACAAUUAUCAUAGCGAGUGAUGUUCGUUAUACACAGGUAGGUCGCUGUAUAUCGA [JR_ExcArginiB_Sub012]”: the “apparent KD of K4 kissing-loop reporter” value is, setting by setting: (input ligand: FMN 200 uM) 364 nM; (input ligand: arginine 13.2 mM) 367 nM; (input ligand: none) 356 nM; under setting [1], 451 nM; under setting [2], 397 nM.
As to “ACGCAUGGGCAAGGAUAUGGUAGUGAUGUUACCUUUGCGGUGCCGGGAACGAAUGACGGUCAUGCGCCAGAAGGUGCUCAGACAA [theeternabot_exclusion_KL_FMN_B_23]”, the “apparent KD of K4 kissing-loop reporter” value (input ligand: FMN 200 uM) is 203 nM; the “apparent KD of K4 kissing-loop reporter” value (input ligand: arginine 13.2 mM) came out at 180 nM; the “apparent KD of K4 kissing-loop reporter” value (input ligand: none) was found to be 178 nM; the “apparent KD of K4 kissing-loop reporter” value under setting [1] is 250 nM; the “apparent KD of K4 kissing-loop reporter” value under setting [2] stood at 183 nM.
For “ACGGUUUCCACGGCCGCCACUUGCGCAUUAGAUCUUACCCUAGGAGUGAUGUUCCAUACAAGUACAAGGACCGGGUGGGACAUAA [theeternabot_sameState_KL_Trp_B_28]”, the “apparent KD of K4 kissing-loop reporter” value is, setting by setting: (input ligand: FMN 200 uM) 257 nM; (input ligand: arginine 13.2 mM) 369 nM; (input ligand: none) 375 nM; under setting [1], 342 nM; under setting [2], 239 nM.
As for “ACGUAGUUCUAGGAUACCAGCCAAGGUGCCAGGACAAAAGUCCUGGCAGCCAGUGAUGUUGGCCCUUGGCAGCCUAGAACUACGA [Omei KL Theo B Exc B v7]”, the “apparent KD of K4 kissing-loop reporter” value (input ligand: FMN 200 uM) turned out to be 164 nM; the “apparent KD of K4 kissing-loop reporter” value (input ligand: arginine 13.2 mM) stood at 145 nM; the “apparent KD of K4 kissing-loop reporter” value (input ligand: none) came out at 154 nM; the “apparent KD of K4 kissing-loop reporter” value under setting [1] came out at 122 nM; the “apparent KD of K4 kissing-loop reporter” value under setting [2] was 137 nM.
